Laboratory results: IntAct's records for PubMed 21633354

target: T1, cnd2_schpo cnd2 (UniProt Q9Y7R3)
T1 sequence: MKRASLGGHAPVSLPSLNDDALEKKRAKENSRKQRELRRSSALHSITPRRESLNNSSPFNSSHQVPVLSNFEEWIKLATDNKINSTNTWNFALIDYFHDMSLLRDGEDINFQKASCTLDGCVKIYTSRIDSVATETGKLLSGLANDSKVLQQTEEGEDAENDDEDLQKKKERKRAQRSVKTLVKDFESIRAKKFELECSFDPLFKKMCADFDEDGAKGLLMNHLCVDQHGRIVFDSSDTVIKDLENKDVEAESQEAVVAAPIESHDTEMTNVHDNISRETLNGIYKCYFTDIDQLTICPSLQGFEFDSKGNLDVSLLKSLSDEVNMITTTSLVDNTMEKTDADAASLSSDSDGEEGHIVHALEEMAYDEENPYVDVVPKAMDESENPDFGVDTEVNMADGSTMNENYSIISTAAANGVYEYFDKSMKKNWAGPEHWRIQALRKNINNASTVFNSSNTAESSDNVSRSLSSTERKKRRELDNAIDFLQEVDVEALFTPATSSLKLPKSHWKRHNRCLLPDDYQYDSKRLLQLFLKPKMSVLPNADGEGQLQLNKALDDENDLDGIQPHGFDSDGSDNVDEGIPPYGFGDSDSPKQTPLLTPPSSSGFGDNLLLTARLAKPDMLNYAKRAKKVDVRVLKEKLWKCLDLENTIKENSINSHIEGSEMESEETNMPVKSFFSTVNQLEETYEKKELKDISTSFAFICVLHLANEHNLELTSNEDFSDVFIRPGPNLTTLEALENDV

| effect of a mutation on the interaction | Substance |
| --- | --- |
| decreasing interaction | Histone H2A-beta (Schizosaccharomyces pombe (strain ATCC 38366 / 972)) (from UniProt P04910) R19A |
| disrupting interaction strength | Histone H2A-beta (Schizosaccharomyces pombe (strain ATCC 38366 / 972)) (from UniProt P04910) K14A;R19A;K22A |
| disrupting interaction strength | Histone H2A-beta (Schizosaccharomyces pombe (strain ATCC 38366 / 972)) (from UniProt P04910) K5A;K9A;K14A;R19A;K22A |
